Target: pyrrolated BSA (pyrBSA), P02769
Experiment: ELISA
Settings: chain shown with the change, left panel, antigen pyrBSA, read off a plot

pyrrolated BSA (pyrBSA), P02769, sequence (P02769 25-607): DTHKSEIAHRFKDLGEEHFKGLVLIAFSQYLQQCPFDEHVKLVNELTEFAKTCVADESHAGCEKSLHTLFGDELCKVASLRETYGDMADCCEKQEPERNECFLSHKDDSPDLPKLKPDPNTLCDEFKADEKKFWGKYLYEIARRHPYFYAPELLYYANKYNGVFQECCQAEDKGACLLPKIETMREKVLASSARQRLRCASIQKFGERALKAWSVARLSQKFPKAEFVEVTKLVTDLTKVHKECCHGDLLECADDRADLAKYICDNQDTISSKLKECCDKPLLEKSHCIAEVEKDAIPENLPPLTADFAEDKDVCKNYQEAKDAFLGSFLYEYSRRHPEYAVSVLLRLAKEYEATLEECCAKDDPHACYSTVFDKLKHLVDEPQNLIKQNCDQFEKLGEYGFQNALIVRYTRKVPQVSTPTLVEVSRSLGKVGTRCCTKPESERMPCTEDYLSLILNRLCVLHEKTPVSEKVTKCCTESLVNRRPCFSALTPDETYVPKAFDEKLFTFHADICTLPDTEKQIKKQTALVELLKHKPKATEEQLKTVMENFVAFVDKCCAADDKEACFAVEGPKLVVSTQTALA

response (VH about 6.4 nM (4th point of the titration, read from the log x axis), parent: est. 1.7): 0.65 Abs (490 nm) | response (VH about 16 nM (5th point of the titration, read from the log x axis), parent: est. 3.1): 1.9 Abs (490 nm)
B1: VH DO1 (VH-His6 of scFv DO1) R97A (protein)
chain: EVQLQQSGPELVKPGASVKMSCKASGYTFTSYVMHWVKQKPGQGLEWIGYINPHNDGTKYNEKFKGKATLTSDKSSSTAYMELSSLTSEDSAVYYCARKLAGFAYWGQGTLVTVSS

From paper PMC10838295
